Columns and labels:
Conditions in all cases: both partners purified
[1] = target: T1, MMP-13 (active enzyme of the inhibition assays) (UniProt P45452 20-471); assay: enzyme inhibition kinetics (fluorogenic peptide substrates); apparent Ki; enzyme pre-incubated with TIMP-3 (0.5-100 nM) 1 h at 37 °C, equilibrium rate of substrate hydrolysis; TNC buffer (50 mM Tris-HCl pH 7.5, 150 mM NaCl, 10 mM CaCl2, 0.05% Brij-35, 0.02% NaN3), 37 °C; tight-binding equation
T1 construct: MMP-13 whose activity was measured (0.1 nM)

[2] = target: T2, FLAG-tagged ADAMTS-4 lacking the C-terminal spacer domain (ADAMTS4-2) (UniProt O75173 213-685); assay: as above
T2 construct: ADAMTS-4 lacking the C-terminal spacer domain
T2 sequence (looked up): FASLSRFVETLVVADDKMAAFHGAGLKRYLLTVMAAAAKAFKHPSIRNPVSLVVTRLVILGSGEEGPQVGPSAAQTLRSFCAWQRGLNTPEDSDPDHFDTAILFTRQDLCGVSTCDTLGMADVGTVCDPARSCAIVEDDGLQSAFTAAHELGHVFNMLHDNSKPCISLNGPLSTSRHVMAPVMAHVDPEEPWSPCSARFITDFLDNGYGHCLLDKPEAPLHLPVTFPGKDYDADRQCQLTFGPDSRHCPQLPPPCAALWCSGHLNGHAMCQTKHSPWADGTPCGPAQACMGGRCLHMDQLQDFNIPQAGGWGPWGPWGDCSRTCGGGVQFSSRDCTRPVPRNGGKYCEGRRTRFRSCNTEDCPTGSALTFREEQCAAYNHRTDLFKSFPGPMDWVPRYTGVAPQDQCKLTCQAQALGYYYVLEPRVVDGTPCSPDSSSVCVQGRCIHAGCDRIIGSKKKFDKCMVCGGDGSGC

[3] = target: T3, MMP-9 (UniProt P14780 107-707); assay: enzyme activity of pre-formed complexes against synthetic substrates; 10 nM [35S]TIMP-3 incubated with an equimolar concentration of metalloproteinase for 1 h at 37 °C; complex formation and stability over 24 h checked by activity
T3 construct: MMP-9, active enzyme after removal of the pro-domain with APMA

[4] = target: T4, MMP-3 catalytic domain (MMP-3ΔC) (UniProt P08254 100-272); assay: as above
T4 construct: catalytic domain of MMP-3; pro-domain removed with APMA

[5] = target: T5, ectodomain of MMP-14 (UniProt P50281 112-541); assay: as above
T5 construct: also called MMP-14 ectodomain; MMP-14 catalytic domain

[6] = target: T6, catalytic domain of human MMP-1 (MMP-1ΔC) (human, UniProt P03956 100-269); assay: as above
T6 construct: catalytic domain of human MMP-1 (lacks the hemopexin domain); pro-domain removed with APMA
T6 sequence (looked up): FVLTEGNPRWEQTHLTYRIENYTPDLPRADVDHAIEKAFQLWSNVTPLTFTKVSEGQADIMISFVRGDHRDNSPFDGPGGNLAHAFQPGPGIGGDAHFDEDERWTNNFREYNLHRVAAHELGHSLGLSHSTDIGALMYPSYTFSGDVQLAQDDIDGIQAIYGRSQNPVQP

[7] = target: T2, FLAG-tagged ADAMTS-4 lacking the …; assay: as above
[8] = target: T7, FLAG-tagged ADAMTS-5 lacking the C-terminal thrombospondin domain (ADAMTS5-2) (UniProt Q9UNA0 262-874); assay: as above
T7 construct: ADAMTS-5 lacking the C-terminal thrombospondin domain
T7 sequence (looked up): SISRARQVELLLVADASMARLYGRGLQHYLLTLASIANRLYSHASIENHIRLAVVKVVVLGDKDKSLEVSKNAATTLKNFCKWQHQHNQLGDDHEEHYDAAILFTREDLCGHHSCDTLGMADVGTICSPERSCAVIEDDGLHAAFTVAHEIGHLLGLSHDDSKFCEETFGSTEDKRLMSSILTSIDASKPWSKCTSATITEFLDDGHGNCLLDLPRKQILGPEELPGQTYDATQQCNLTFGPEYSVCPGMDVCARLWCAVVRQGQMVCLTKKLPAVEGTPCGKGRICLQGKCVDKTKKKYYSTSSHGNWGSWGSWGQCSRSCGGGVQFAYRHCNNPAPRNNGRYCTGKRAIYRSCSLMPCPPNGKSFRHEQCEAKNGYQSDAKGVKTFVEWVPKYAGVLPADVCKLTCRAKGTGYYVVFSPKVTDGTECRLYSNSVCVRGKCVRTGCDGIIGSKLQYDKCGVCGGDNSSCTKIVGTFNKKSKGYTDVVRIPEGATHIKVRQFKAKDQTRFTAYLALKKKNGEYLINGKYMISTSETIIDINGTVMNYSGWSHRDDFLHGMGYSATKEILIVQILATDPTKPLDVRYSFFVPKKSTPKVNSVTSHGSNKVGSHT

[9] = target: T8, low-density lipoprotein receptor-related protein 1 (LRP-1) (UniProt Q07954 20-4544); assay: SPR; BIAcore T200; LRP-1 immobilised on a CM5 chip by amine coupling (3000 RU); 25 °C; 150 mM NaCl, 10 mM CaCl2, 50 mM Tris-HCl, 0.01% Tween-20, pH 7.5; 30 μl/min; ligands or pre-formed complexes injected; one-site binding model; triplicate
T8 construct: low-density lipoprotein receptor-related protein 1 (LRP-1), bought from Biomac; source: bought: Biomac (Leipzig, Germany)
T8 sequence (Q07954 20-4544): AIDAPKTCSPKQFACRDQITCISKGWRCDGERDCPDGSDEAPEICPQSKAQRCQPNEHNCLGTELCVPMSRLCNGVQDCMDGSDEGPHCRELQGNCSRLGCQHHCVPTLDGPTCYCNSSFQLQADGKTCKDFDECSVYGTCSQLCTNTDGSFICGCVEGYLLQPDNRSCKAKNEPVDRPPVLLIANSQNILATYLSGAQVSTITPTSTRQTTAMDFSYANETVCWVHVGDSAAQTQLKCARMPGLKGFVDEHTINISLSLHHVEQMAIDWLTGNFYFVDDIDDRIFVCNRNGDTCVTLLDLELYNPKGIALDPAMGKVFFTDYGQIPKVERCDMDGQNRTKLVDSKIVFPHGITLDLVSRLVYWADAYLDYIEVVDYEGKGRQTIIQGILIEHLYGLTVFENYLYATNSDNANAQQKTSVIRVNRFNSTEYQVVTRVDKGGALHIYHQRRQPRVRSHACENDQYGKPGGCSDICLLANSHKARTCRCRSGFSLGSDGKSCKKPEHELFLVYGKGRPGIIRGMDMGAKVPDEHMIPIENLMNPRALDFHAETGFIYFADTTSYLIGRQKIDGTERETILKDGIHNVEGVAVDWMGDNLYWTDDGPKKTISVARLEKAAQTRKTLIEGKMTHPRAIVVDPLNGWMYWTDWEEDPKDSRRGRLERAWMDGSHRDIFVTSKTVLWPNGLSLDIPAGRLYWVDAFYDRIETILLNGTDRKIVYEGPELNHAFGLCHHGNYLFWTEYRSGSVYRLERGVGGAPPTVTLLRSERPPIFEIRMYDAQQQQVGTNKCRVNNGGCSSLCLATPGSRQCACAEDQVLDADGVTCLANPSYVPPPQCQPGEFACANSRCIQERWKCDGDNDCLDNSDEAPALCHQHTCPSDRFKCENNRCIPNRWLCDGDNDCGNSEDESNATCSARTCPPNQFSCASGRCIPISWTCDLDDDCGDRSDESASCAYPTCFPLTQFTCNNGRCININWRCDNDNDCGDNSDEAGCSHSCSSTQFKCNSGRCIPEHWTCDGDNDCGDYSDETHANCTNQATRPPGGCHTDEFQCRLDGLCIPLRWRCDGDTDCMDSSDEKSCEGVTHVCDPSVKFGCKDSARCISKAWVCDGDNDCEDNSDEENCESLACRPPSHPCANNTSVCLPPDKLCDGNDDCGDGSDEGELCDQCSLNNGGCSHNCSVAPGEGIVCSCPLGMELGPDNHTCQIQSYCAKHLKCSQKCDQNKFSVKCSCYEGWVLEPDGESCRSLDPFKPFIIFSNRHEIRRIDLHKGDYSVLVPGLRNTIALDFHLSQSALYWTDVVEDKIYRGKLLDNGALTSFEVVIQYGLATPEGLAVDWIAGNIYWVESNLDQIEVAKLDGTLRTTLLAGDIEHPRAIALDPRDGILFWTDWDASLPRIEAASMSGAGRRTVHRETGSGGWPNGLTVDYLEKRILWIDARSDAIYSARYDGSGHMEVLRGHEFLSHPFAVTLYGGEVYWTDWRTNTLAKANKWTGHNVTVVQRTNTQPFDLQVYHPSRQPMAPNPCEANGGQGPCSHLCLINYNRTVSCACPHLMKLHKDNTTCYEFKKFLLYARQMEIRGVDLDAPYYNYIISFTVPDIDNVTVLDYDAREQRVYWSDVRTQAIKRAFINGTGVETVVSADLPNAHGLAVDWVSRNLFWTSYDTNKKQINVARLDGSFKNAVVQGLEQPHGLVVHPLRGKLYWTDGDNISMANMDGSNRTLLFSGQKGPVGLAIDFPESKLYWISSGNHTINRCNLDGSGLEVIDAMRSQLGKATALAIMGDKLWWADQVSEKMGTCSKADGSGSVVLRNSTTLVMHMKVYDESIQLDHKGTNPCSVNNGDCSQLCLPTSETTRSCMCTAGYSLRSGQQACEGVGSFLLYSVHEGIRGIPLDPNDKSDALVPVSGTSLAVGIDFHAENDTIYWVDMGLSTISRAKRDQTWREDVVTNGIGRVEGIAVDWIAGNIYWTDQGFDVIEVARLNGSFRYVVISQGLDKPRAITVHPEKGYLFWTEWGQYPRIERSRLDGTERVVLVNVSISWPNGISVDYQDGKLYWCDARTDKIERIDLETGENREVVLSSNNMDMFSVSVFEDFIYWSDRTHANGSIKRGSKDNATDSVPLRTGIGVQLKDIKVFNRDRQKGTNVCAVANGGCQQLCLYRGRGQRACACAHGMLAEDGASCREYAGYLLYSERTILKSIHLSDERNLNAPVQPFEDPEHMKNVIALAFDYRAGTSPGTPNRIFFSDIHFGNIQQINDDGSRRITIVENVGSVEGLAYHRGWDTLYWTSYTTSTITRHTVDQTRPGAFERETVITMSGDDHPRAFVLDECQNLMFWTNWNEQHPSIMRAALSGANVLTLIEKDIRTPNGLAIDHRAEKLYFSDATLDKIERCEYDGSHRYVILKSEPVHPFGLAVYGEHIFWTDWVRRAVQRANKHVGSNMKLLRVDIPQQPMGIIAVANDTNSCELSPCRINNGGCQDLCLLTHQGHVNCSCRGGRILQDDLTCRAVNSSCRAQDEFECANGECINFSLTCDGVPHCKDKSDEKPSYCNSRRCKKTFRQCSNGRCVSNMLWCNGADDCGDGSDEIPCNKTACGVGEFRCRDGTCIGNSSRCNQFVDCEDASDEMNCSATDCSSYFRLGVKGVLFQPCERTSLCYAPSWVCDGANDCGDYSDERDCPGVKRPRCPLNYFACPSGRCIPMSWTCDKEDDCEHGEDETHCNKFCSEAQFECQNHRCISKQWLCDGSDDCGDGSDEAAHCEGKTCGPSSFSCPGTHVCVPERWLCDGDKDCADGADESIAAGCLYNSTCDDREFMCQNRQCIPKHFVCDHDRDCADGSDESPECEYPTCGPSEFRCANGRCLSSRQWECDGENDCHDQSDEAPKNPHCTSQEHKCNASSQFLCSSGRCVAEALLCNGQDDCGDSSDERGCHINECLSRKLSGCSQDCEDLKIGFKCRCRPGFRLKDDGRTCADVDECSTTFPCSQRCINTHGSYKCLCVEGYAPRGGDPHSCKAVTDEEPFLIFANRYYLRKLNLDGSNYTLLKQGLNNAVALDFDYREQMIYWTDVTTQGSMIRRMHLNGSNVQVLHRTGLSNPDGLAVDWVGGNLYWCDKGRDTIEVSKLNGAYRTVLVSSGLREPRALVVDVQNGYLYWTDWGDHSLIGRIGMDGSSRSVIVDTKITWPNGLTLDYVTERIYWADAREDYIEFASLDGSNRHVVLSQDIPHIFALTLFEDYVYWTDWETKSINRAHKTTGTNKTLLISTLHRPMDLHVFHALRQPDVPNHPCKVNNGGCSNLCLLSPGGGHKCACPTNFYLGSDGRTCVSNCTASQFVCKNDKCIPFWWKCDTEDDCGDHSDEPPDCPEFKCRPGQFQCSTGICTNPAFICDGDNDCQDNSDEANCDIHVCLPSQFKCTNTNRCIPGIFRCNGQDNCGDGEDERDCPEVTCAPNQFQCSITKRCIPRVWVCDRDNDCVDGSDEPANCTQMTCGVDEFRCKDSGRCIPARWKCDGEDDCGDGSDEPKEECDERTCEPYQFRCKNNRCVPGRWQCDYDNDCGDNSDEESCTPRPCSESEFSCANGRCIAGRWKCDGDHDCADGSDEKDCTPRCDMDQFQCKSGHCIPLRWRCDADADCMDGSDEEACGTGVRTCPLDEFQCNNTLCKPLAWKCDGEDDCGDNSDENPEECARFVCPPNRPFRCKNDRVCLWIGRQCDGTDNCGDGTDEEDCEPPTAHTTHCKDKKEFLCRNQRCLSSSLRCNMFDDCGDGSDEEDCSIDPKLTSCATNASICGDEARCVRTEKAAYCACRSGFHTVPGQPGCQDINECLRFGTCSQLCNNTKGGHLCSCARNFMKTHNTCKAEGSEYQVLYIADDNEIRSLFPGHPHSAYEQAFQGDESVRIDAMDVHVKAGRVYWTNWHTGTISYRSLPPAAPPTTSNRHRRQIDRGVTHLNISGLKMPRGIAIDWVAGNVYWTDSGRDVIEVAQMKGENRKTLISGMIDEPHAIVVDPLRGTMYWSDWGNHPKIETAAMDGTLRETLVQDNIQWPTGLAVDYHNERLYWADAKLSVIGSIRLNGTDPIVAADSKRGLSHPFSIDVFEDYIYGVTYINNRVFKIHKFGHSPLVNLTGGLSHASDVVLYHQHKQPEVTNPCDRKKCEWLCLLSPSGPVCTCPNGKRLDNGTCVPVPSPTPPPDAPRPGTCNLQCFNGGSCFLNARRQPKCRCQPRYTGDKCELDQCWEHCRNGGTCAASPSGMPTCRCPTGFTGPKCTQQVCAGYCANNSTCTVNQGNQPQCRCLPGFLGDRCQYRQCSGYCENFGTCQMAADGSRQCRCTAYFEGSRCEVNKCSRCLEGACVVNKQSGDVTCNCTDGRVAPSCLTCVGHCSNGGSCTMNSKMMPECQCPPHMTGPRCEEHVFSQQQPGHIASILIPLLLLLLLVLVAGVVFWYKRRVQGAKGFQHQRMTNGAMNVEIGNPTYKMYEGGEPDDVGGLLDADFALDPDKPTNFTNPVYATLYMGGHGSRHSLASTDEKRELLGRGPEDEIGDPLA

T4 sequence (P08254 100-272, stated change not applied): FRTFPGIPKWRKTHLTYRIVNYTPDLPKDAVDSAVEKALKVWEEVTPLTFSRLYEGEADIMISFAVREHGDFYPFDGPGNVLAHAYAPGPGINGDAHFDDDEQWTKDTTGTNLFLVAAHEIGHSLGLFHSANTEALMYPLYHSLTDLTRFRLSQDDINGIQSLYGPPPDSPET

B1: FLAG-tagged TIMP-3 (natural protein, UniProt P35625 24-211, looked up)
chain: CTCSPSHPQDAFCNSDIVIRAKVVGKKLVKEGPFGTLVYTIKQMKMYRGFTKMPHVQYIHTEASESLCGLKLEVNKYQYLLTGRVYDGKMYTGLCNFVERWDQLTLSQRKGLNYRYHLGCNCKIKSCYYLPCFVTSKNECLWTDMLSNFGYPGYQSKHYACIRQKGGYCSWYRGWAPPDKSIINATDP
notes: also called T3; [35S]TIMP-3
In the case of B1, the Ki [1] is reported as less than 0.5 nM, the Ki [2] is reported as 1.24 nM and the “stoichiometry N” value [3] is reported as 1. The “stoichiometry N” value [4] was 1, the “stoichiometry N” value [5] was 1 and the “stoichiometry N” value [6] was 1. For the same binder, the “stoichiometry N” value [7] was 1, the “stoichiometry N” value [8] was 1 and the Kd [9] was 1.68 nM. The koff [9] was 0.00389 s⁻¹ and the kon [9] was 2.31e+06 M⁻¹ s⁻¹.
